Target: MucR from Brucella abortus (wild-type full-length protein) (Brucella abortus)
Experiment: SEC-MALS

## MucR from Brucella abortus (wild-type full-length protein) (natural protein)
  stoichiometry N: 10.4
